Data reported in publication PMC12796099.

Target: human somatostatin receptor 5 (SSTR5) (human) (UniProt P35346)
Sequence of UniProt P35346 (P35346 whole entry): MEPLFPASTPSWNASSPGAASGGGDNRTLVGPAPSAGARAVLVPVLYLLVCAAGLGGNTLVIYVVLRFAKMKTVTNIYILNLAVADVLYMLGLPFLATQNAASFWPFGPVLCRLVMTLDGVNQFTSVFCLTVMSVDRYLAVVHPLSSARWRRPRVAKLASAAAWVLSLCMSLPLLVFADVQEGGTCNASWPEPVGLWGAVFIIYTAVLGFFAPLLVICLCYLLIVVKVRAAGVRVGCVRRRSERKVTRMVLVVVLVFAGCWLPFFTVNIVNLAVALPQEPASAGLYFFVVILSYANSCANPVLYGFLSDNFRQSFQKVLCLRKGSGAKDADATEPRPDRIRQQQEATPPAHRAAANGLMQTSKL

Question: “SRIF-14-Sed1 periplasmic display fusion (from UniProt P61278 103-116) (ligand)” was tested. Which autocrine GPCR activation by αPre-ligand-display fusion, DCyFIR mTq2 transcriptional reporter, relative to the Ccw14 fusion (% of the activity of the Ccw14 fusion) did it give?
Answer: 30
